In US20190194300A1:

Target: Staphylococcus aureus autoinducing peptide-2 (AIP2) (Staphylococcus aureus)
Test: SPR, BiaCore T200

Binder | Ka [M⁻¹] | Kd [nM] | koff [s⁻¹] | kon [M⁻¹ s⁻¹]
wild type anti-AIP2 antibody E7 (antibody, V domains shown) VH: EVQLVQSGAEVKKPGASVRVSCKTSGYSFTSYDINWVRQTTGQGLEWMGWVNPTSGSTGYAQKFQGRVTMTANTAINTAYMELRDLRSEDTAVYFCVRDVPFDPWGQGTLVTVSS VL: QSVLTQPASVSGSPGQSITISCTGTSSDVGKYTFVSWYQQHPGKAPKVMVYEVNKRPLGVSPRFSGSKSGNTAYLTISGLQAEDEADYYCSSYTSSSTVVFGGGTKLTVL | 1.85e+07 | 53.9 | 0.027 | 501000
variant anti-AIP2 antibody X18 (antibody, V domains shown) VH: EVQLVQSGAEVKKPGASVRVSCKTSGYSGTSYDINWVRQTTGQGLEWMGWVNPTSGSTGYAQKFQGRVTMTANTAINTAYMELRDLRSEDTAVYFCVRDVPVDPWGQGTLVTVSS VL: QSVLTQPASVSGSPGQSITISCTGTSSDVGKYTFVSWYQQHPGKAPKVMVYEVNKRPLGVSPRFSGSKSGNTAYLTISGLQAEDEADYYCSSYASSSTVVFGGGTKLTVL | 2.85e+07 | 35 | 0.02 | 570000
variant anti-AIP2 antibody X12 (antibody, V domains shown) VH: QVQLVQSGAEVKKPGASVRVSCKTSGYSFTVYDINWVRQTTGQGLEWMGWVNPTSGSTGYAQKFQGRVTMTANTAINTAYMELRDLRSEDTAVYFCVRDVPVDPWGQGTTVTVSS VL: QSVLTQPASVSGSPGQSITISCTGTSSDVGKYLFVSWYQQHPGKAPKVMVYEVNKRPLGVSPRFSGSKSGNTAYLTISGLQAEDEADYYCSSYTSSSTVVFGGGTKLTVL | 1.54e+07 | 64.9 | 0.012 | 186000
